Test results taken from patent publication US20210179698A1 (AstraZeneca / MedImmune, published 2021).
Residue numbers refer to the chain shown, from its start. Each block holds one binder with its values, some of them ahead of it.

Columns and labels:
aggregated human α-syn = aggregated human α-syn (human, UniProt P37840 1-140); assay: DELFIA pair-wise capture ELISA: mouse IgG1 version of the antibody as capture, human IgG1 TM version of the same antibody as detection, anti-human IgG-Eu
Description: Subsequent to incubation and washing, the appropriate detection substrate was added (TMB or DELFIA Enhancer solution respectively) and the plate read on a microtitre plate reader.

[1] = molecular target: disease relevant pathological forms of human α-syn in Parkinson's disease brain tissue (human, UniProt P37840 1-140); assay: immunohistochemistry of Parkinson's disease brain tissue
[2] = molecular target: T1, human gamma-synuclein (recombinant) (human, UniProt O76070 1-127); assay: HTRF epitope competition: unlabelled synuclein titrated against biotinylated human α-syn for binding to aslo0543
T1 construct: also called γ-syn; γ-synuclein
Description: (§1) IC₅₀ values were determined by curve fitting the data to a four parameter logistic equation using PRISM 6® software (Graphpad). […] For the negative control, the antibody test sample was replaced with an isotype control antibody or buffer only.

[3] = molecular target: T2, human beta-synuclein (recombinant) (human, UniProt Q16143 1-134); assay: as above
T2 construct: also called β-syn; β-synuclein
Description: as §1

rat α-syn = rat α-syn (rat, UniProt P37377 1-140); assay: direct binding HTRF assay
[4] = molecular target: native, endogenously expressed intracellular human α-syn in SH-SY5Y neuroblastoma cells (human, UniProt P37840 1-140); assay: flow cytometry on fixed, permeabilised SH-SY5Y cells, anti-human IgG-FITC
Description: After extensive washes, bound antibody was detected by incubation with an anti-human or anti-mouse IgG-FITC secondary antibody. Following further washes the cells were analyzed with a FACS Canto II apparatus (Becton Dickinson, Franklin Lakes, N.J.) and data analysis was performed using FlowJo Software (Tree Star, Ashland, Oreg.).

61-140 = molecular target: T3, 61-140 (human, UniProt P37840); assay: ELISA on coated α-syn truncates (1 µg/ml coat, 1 µg/ml antibody), anti-human IgG-HRP detection
T3 construct: residues 61-140, NAC plus C-terminal region; coated on ELISA wells; also called α-syn truncate 61-140; aa61-140
Description: (§2) Briefly, one microgram per milliliter of each truncate was coated to a microtitre well overnight at 4° C. […] Following 1 h incubation and washing the bound antibody was detected by addition of an anti-human IgG conjugated to either HRP or Eu³⁺. Subsequent to incubation and washing, the appropriate detection substrate was added (TMB or DELFIA Enhancer solution respectively) and the plate read on a microtitre plate reader.

[5] = molecular target: human alpha-synuclein (recombinant) (human, UniProt P37840 1-140); assay: as above
Description: as §2

96-140 = molecular target: T4, 96-140 (human, UniProt P37840); assay: as above
T4 construct: residues 96-140, C-terminal region only; coated on ELISA wells; also called α-syn truncate 96-140; C-terminal region only
Description: as §2

ΔNAC = molecular target: T5, ΔNAC (human, UniProt P37840); assay: as above
T5 construct: NAC region deleted; coated on ELISA wells; also called ANAC; α-syn with NAC region deleted
Description: as §2

1-60 = molecular target: T6, 1-60 (human, UniProt P37840); assay: ELISA on coated α-syn truncates, anti-human IgG-HRP detection
T6 construct: residues 1-60, N-terminal region only; coated on ELISA wells; also called α-syn truncate 1-60; aa1-60
Description: as §2

NCAP = molecular target: T7, NCAP (human, UniProt P37840-2); assay: as above
T7 construct: alternatively spliced form missing amino acids 103-129; coated on ELISA wells; also called alternatively spliced form of α-syn missing amino acids 103-129
Description: as §2

1-95 = molecular target: T8, 1-95 (human, UniProt P37840); assay: as above
T8 construct: residues 1-95, N-terminal and NAC regions; coated on ELISA wells; also called α-syn truncate 1-95; aa1-95
Description: as §2

[6] = molecular target: T1, human gamma-synuclein (recombinant); assay: HTRF epitope competition: unlabelled synuclein titrated against biotinylated human α-syn for binding to aslo0452 ngl-3
Description: as §1

[7] = molecular target: T2, human beta-synuclein (recombinant); assay: as above
Description: as §1

- binding result (aggregated human α-syn): binds
- binding result [1]: binds
- binding result [2]: no binding
- binding result [3]: no binding
- binding result (rat α-syn): binds
- binding result [4]: binds
- binding result (61-140): binds
- binding result [5]: binds
- binding result (96-140): binds
- binding result (ΔNAC): binds
B1: aslo0543 (antibody, human IgG1, lambda, V domains shown)
VH: not shown
VL: QAVLTQPASLSASPGASASLTCTLRSSGDFSRYRIYWYQQKPGSPPQYLLRYKSDADKHQGSGVPSRFSGSKDASANAGILLISGLQSEDEADYYCMVWSSGAWYFGGGTKLTVLG
notes: also called aslo0543 IgG
- binding result (1-60): no binding (tested: 1 µg/ml (single concentration))
- binding result (NCAP): no binding (tested: 1 µg/ml (single concentration))
- binding result (1-95): no binding (tested: 1 µg/ml (single concentration))

- binding result (96-140): binds
- binding result (ΔNAC): binds
- binding result [6]: no binding
- binding result [7]: no binding
B2: aslo0452 ngl-3 (antibody, human IgG1, lambda, V domains shown)
VH: EVQLLESGGGLVQPGGSLRLSCAASGFTFSSYAMSWVRQAPGKGLEWVSSISHLGGSTYYADSVKGRFTISRDNSKNTLYLQMNSLRAEDTAVYYCAGGANHGKYYYGMDKWGQGTTVTVSS
VL: B1 VL with S27G, G28A, D29P, F30L, S31P, R32K, S100D, S101H, A103V
notes: also called aslo0452 ngl-3 IgG; aslo0452-ngl3-hIgG1TM
- binding result (1-60): no binding (tested: 1 µg/ml (single concentration))
